The chains are these.
B1: BTBD1 (parent)
chain: TSAEIELPDVEPAAFLALLRFLYS
B2: PLD5 (parent)
chain: WIVDKQHVYIGSAGLDWQSLGQMK

94 variants from the supplement of paper PMC10567573 can be followed below.
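Further: lentivirally expressed fusions sorted by FACS into six bins by GFP to DsRed ratio, PSI derived from sequencing read proportions per bin multiplied by bin number.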

In the first data set the parent is B1. The data set can be described thus: protein stability index of a GFP-peptide fusion (GPS, HEK-293T) (PSI 1-6); higher = more stable. The following applies: c terminus: a fixed tail appended.
On to TSAEIVLPDVEPAAFLALLRFLYS [E6V], for which the protein stability index is 1.67. Same read-out and setting: with TSAEIKLPDVEPAAFLALLRFLYS [E6K] the figure was 2.13; with TSAEIWLPDVEPAAFLALLRFLYS [E6W], 1.85. Same read-out and setting: next, TSAEIDLPDVEPAAFLALLRFLYS [E6D]: 2.07; TSAEILLPDVEPAAFLALLRFLYS [E6L]: 1.73; ISAEIELPDVEPAAFLALLRFLYS [T1I]: 1.65. Same read-out and setting: next, CSAEIELPDVEPAAFLALLRFLYS [T1C]: 2.79; YSAEIELPDVEPAAFLALLRFLYS [T1Y]: 1.97. In the case of SSAEIELPDVEPAAFLALLRFLYS [T1S], the protein stability index was 1.65. Same read-out and setting: with LSAEIELPDVEPAAFLALLRFLYS [T1L] the figure was 2.02. Regarding FSAEIELPDVEPAAFLALLRFLYS [T1F], the protein stability index was determined as 1.79. On the same count and under the same terms, with ASAEIELPDVEPAAFLALLRFLYS [T1A] the figure was 2.22; with NSAEIELPDVEPAAFLALLRFLYS [T1N], 2.17. Still for that read-out and setting: next, ESAEIELPDVEPAAFLALLRFLYS [T1E]: 1.66; RSAEIELPDVEPAAFLALLRFLYS [T1R]: 1.9. As to WSAEIELPDVEPAAFLALLRFLYS [T1W], the protein stability index worked out at 1.96.

Turning to MSAEIELPDVEPAAFLALLRFLYS [T1M], the protein stability index was 2.46. Still for that read-out and setting: next, GSAEIELPDVEPAAFLALLRFLYS [T1G]: 2.56; QSAEIELPDVEPAAFLALLRFLYS [T1Q]: 1.97. Same read-out and setting: next, VSAEIELPDVEPAAFLALLRFLYS [T1V]: 1.88. Same read-out and setting: with DSAEIELPDVEPAAFLALLRFLYS [T1D] the figure was 2.4. Take HSAEIELPDVEPAAFLALLRFLYS [T1H]: the protein stability index is 2.15. On the same count and under the same terms, with PSAEIELPDVEPAAFLALLRFLYS [T1P] the figure was 1.88; with KSAEIELPDVEPAAFLALLRFLYS [T1K], 2.68; with TSAEIEIPDVEPAAFLALLRFLYS [L7I], 1.93. The same measure, in the same setting: with TSAEIEGPDVEPAAFLALLRFLYS [L7G] the figure was 1.89; with TSAEIEKPDVEPAAFLALLRFLYS [L7K], 2.31; with TSAEIEMPDVEPAAFLALLRFLYS [L7M], 2.08. The same measure, in the same setting: next, TSAEIEWPDVEPAAFLALLRFLYS [L7W]: 2.02; TSAEIEEPDVEPAAFLALLRFLYS [L7E]: 1.63; TSAEIEQPDVEPAAFLALLRFLYS [L7Q]: 1.96. For the variant TSAEIENPDVEPAAFLALLRFLYS [L7N], the protein stability index came out at 1.9. The same measure, in the same setting: with TSAEIEFPDVEPAAFLALLRFLYS [L7F] the figure was 1.96; with TSAEIEHPDVEPAAFLALLRFLYS [L7H], 2.22. Still for that read-out and setting: with TSAEIEVPDVEPAAFLALLRFLYS [L7V] the figure was 1.98. On the same count and under the same terms, next, TSAEIESPDVEPAAFLALLRFLYS [L7S]: 1.79.

As for TSAEIECPDVEPAAFLALLRFLYS [L7C], the protein stability index came to 1.75. The same measure, in the same setting: next, TSAEIEDPDVEPAAFLALLRFLYS [L7D]: 2.15; TSAEIETPDVEPAAFLALLRFLYS [L7T]: 1.75; TSAEIERPDVEPAAFLALLRFLYS [L7R]: 2.28.

For the variant TSAEIEAPDVEPAAFLALLRFLYS [L7A], the protein stability index came out at 1.88. On the same count and under the same terms, next, TSAEIEPPDVEPAAFLALLRFLYS [L7P]: 2.3; TSAEIEYPDVEPAAFLALLRFLYS [L7Y]: 2.05.

Variants of B2 are the subject of the next data set. The data set is described as above. The following applies: c terminus: a fixed tail appended.
Take WIVDKQHVYIGSAGLDWQSLGQRK [M23R]: the protein stability index came out at 1.97. Same read-out and setting: next, WIVDKQHVYIQSAGLDWQSLGQMK [G11Q]: 1.53. Same read-out and setting: next, WIVDKQHVYIASAGLDWQSLGQMK [G11A]: 1.69. As for WIVDKQHVYIFSAGLDWQSLGQMK [G11F], the protein stability index is 2.11. On to WIVDKQHVYITSAGLDWQSLGQMK [G11T], for which the protein stability index turned out to be 1.71.

For WIVDKQHVYINSAGLDWQSLGQMK [G11N], the protein stability index stood at 2.32. Consider WIVDKQHVYPGSAGLDWQSLGQMK [I10P], for which the protein stability index stood at 1.79. On the same count and under the same terms, with WIVDKQHVYIGSAGLDWQSLVQMK [G21V] the figure was 2.13. In the case of WIVDKQHVYIGSAGLDWQSLTQMK [G21T], the protein stability index came out at 1.86. In the case of WIVDKQHVYIGSAGLDWQSLRQMK [G21R], the protein stability index amounted to 1.86. On the same count and under the same terms, with WICDKQHVYIGSAGLDWQSLGQMK [V3C] the figure was 1.6; with WIVDKVHVYIGSAGLDWQSLGQMK [Q6V], 2.08; with WIVDKFHVYIGSAGLDWQSLGQMK [Q6F], 2.05. The same measure, in the same setting: with WIVDKQHVYIGSAGLDWQSLGQMT [K24T] the figure was 2.23; with WIVDKQHVYIGSAGLDFQSLGQMK [W17F], 1.91; with WIVDKQHVYIGSAGLDHQSLGQMK [W17H], 2.35. Same read-out and setting: next, WIVDKQHVYIGSAGLMWQSLGQMK [D16M]: 2.83; WIVDKQHVYIGSAGLKWQSLGQMK [D16K]: 1.68. Regarding WIVDKQHVYIGSAGLDWYSLGQMK [Q18Y], the protein stability index is 2.65. On the same count and under the same terms, next, WIVDKQHVYIGSAGLDWQSHGQMK [L20H]: 1.76.

WIVDKQHVYIGSAGLDWQSKGQMK [L20K]: the protein stability index was 2.17. Turning to WIVDKQHVYIGSAGLDWQSPGQMK [L20P], the protein stability index came out at 2.1. The same measure, in the same setting: with WIVDKQHVYIGSAGLDWQSEGQMK [L20E] the figure was 2.3; with LIVDKQHVYIGSAGLDWQSLGQMK [W1L], 2.12.

As for KIVDKQHVYIGSAGLDWQSLGQMK [W1K], the protein stability index amounted to 2.32. The same measure, in the same setting: with AIVDKQHVYIGSAGLDWQSLGQMK [W1A] the figure was 2.11; with WIVDKQHVYIGSAGLDWQLLGQMK [S19L], 3.25. The same measure, in the same setting: with WIVDKQHVYIGSAGLDWQNLGQMK [S19N] the figure was 1.45; with WIVDKQHVYIGSAGLDWQTLGQMK [S19T], 1.96.

For WIVDKQHVYIGSAGLDWQMLGQMK [S19M], the protein stability index turned out to be 1.7. Turning to WIVDKQHVYIGSAGLDWQFLGQMK [S19F], the protein stability index stood at 2.34. Same read-out and setting: next, WIVDWQHVYIGSAGLDWQSLGQMK [K5W]: 2.34; WIVDKQHMYIGSAGLDWQSLGQMK [V8M]: 2.45; WIVDKQHHYIGSAGLDWQSLGQMK [V8H]: 1.54.

WIVDKQHRYIGSAGLDWQSLGQMK [V8R]: the protein stability index was 4.04. For WIVDKQHYYIGSAGLDWQSLGQMK [V8Y], the protein stability index amounted to 1.25. Still for that read-out and setting: next, WIVDKQHVYIGSAGDDWQSLGQMK [L15D]: 1.92. The same measure, in the same setting: with WIVDKQHVYIGSAELDWQSLGQMK [G14E] the figure was 1.54; with WIVDKQHVYIGSAHLDWQSLGQMK [G14H], 2.29. For WIVDKQHVYIGSTGLDWQSLGQMK [A13T], the protein stability index is 2.02.

For WIVDKQHVDIGSAGLDWQSLGQMK [Y9D], the protein stability index amounted to 1.91. On to WIVDKQHVRIGSAGLDWQSLGQMK [Y9R], for which the protein stability index turned out to be 1.41. The same measure, in the same setting: with WIVDKQEVYIGSAGLDWQSLGQMK [H7E] the figure was 1.42; with WIVDKQSVYIGSAGLDWQSLGQMK [H7S], 2.26; with WIVDKQMVYIGSAGLDWQSLGQMK [H7M], 2.6. Same read-out and setting: with WIVDKQQVYIGSAGLDWQSLGQMK [H7Q] the figure was 1.96; with WIVDKQPVYIGSAGLDWQSLGQMK [H7P], 2.27; with WRVDKQHVYIGSAGLDWQSLGQMK [I2R], 2.17. On the same count and under the same terms, next, WKVDKQHVYIGSAGLDWQSLGQMK [I2K]: 1.9. WIVDKQHVYIGSAGLDWQSLGYMK [Q22Y]: the protein stability index is 2.35. On the same count and under the same terms, next, WIVDKQHVYIGSAGLDWQSLGLMK [Q22L]: 3.9.
